The values that follow come from patent publication US20260374888 (published 2026).

For one assay, the target named is T1, mouse 4-1BB (mouse, UniProt P20334).
T1 chain: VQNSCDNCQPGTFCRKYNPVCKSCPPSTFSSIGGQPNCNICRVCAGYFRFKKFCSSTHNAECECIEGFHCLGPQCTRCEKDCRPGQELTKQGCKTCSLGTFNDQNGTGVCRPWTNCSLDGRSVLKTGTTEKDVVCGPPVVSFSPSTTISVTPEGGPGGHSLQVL
Kind of assay: other, cells transiently overexpressing target.

In another assay the target is T2, mouse CD40 (mouse, UniProt P27512).
T2 chain: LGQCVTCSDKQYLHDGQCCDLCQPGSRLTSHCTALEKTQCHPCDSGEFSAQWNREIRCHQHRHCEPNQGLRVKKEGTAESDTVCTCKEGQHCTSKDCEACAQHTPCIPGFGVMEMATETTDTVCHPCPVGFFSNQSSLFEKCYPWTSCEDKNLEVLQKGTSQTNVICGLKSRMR
Kind of assay: other, cells transiently overexpressing target.

B1: GEN1042 (CD137 arm) (antibody, V domains shown)
VH: EVQLVESGGGLVQPGRSLRLSCTASGFSLNDYWMSWVRQAPGKGLEWVGYIDVGGSLYYAASVKGRFTISRDDSKSIAYLQMNSLKTEDTAVYYCARGGLTYGFDLWGQGTLVTVSS
VL: DIVMTQSPSSLSASVGDRVTITCQASEDISSYLAWYQQKPGKAPKRLIYGASDLASGVPSRFSASGSGTDYTFTISSLQPEDIATYYCHYYATISGLGVAFGGGTKVEIK
B1: the binding result with mouse 4-1BB is “no binding”.

B2: GEN1042 (CD40 arm) (antibody, V domains shown)
VH: EVQLVQSGAEVKKPGASVKVSCKTSGYTFTEYIMHWVRQAPGQGLEWMGGIIPNNGGTSYNQKFQGRVTMTVDKSTSTGYMELSSLRSEDTAVYYCTRREVYGRNYYALDYWGQGTLVTVSS
VL: DIQMTQSPSSLSASVGDRVTITCSASQGINNYLNWYQQKPGKAVKLLIYYTSSLHSGVPSRFSGSGSGTDYTFTISSLQPEDIATYYCQQYSNLPYTFGGGTKVEIK
On to B2, for which, in the assay with mouse CD40, the binding result is given as “no binding”.
